Test results as given in article PMC4505504.

Molecular target: Mycobacterium tuberculosis cytochrome bcc complex (QcrCAB) (M. tuberculosis) (UniProt P9WP35)
Test: pyridine hemochrome heme quantification

Mycobacterium smegmatis cytochrome aa3 (cytochrome oxidase) (complex)
stoichiometry N: 1
